Columns and labels:
[1] = target: T1, SARS-CoV-2 receptor-binding domain (SARS-CoV-2, UniProt P0DTC2)
[2] = target: RaTG13 receptor-binding domain (Bat coronavirus RaTG13, UniProt A0ABF7PLN6)
[3] = target: SARS-CoV-1 receptor-binding domain (SARS-CoV (SARS-CoV-1), isolate not …, UniProt P59594)
[4] = target: T1, SARS-CoV-2 receptor-binding domain; assay: cell-based or functional assay

B1: AB-3545 (antibody, V domains shown)
VH: QVQLQESGPGLVKPSETLSLTCAVSGGSISNYHWNWIRQPPGKGLEWIGYIYYSGRTNYNPTLKSRVNISVDTSKNQFSLKLSSVTAADTAVYYCAREMRRGYSGYDDWDLYAFDIWGQGTMVTVSS
VL: DIQLTQSPSFLSTYVGDRVTITCRASQGISTYLAWYQQKPGKAPKLLIYAAFTLQSGVPSRFSGSGSGTEFTLTISSLQPEDFATYYCQQLNSYPHTFGQGTKLEIK
binding result [1]: binds | binding result [2]: binds | binding result [3]: binds

B2: 3490 (antibody, V domains shown)
VH: QVQLQESGPGLVKPSETLSLTCAVSGGSISSYYWSWIRQPPGKGLEWIGYIYYSGRTNYNPSLKSRVTISVDTSKNQFSLKLSSVTAADTAVYYCAREMRRGYSGYDDWDLYAFDIWGQGTMVTVSS
VL: DIQLTQSPSFLSTSVGDRVTITCRASQGISSYLAWYQQKPGKAPKLLIYAASTLQSGVPSRFSGSGSGTEFTLTISSLQPEDFATYYCQQFNSYPHTFGQGTKLEI
binding result [1]: binds | binding result [2]: binds | binding result [3]: binds

B3: AB-3492 (antibody, V domains shown)
VH: QVQLQESGPGLVKPSETLSLTCAVSGGSISSYYWNWIRQPPGKGLEWIGYIYYSGRTNYNPSLKSRVTISVDTSKNQFSLKLSSVTAADTAVYYCAREMRRGYSGYDDWDLYAFDIWGQGTMVTVSS
VL: DIQLTQSPSFLSTSVGDRVTITCRASQGISSYLAWYQQKPGKAPKLLIYAASTLQSGVPSRFSGSGSGTEFTLTISSLQPEDFATYYCQQLNSYPHTFGQGTKLEIK
binding result [1]: binds | binding result [2]: binds | binding result [3]: binds

B4: 3636 (antibody, V domains shown)
VH: QVQLQESGPGLVKPSETLSLTCTVSGGSISSYHWNWIRQPPGKGLEWIGYIYYSGSTNYNPSLKSRVSISVDTSKNQFSLKLSSVTAADTAVYYCAREMRRGYSGYDYWDLYAFDIWGQGTMVTVSS
VL: DIQLTQSPSFLSASVRDRVTITCRASQGISSYLAWYQQKPGKAPKLLIYAASTLQSGVPSRFSGSGSGTEFTLTISSLQPEDFATYYCQQLNNYPHTFGQGTKLEIK
binding result [1]: binds | binding result [2]: binds | binding result [3]: binds

B5: 3606 (antibody, V domains shown)
VH: QVQLQESGPGLVKPSETLSLTCAVSGGSISSYYWSWIRQPPGKGLEWIGYIYYSGRTNYNSSLKSRVTISVDTSKNQFSLKLSSVTAADTAVYYCAREMRRGYSGYDDWDLYAFDIWGQGTMVTVSS
VL: DIQLTQSPSFLSTSVGDRVTITCRASQGISSYLAWYQQKPGKAPKLLIYAASTLQSGVPSRFSGSGSGTDFTLTISSLQPEDFATYYCQQLNSYPHTFGQGTKLEIK
binding result [1]: binds | binding result [2]: binds | binding result [3]: binds

B6: 3645 (antibody, V domains shown)
VH: QVQLQESGPGLVKPSETLSLTCAVSGGSISSYYWSWIRQPPGKGLEWIGYIYYSGRINYNPSLKSRVTISVDTSKNQFSLKLSSVTAADTAVYYCAREMRRGYSGYDDWDLYAFDIWGQGTMVTVSS
VL: DIQLTQSPSFLSTSVGDRVTITCRASQGISSYLAWYQQKPGKAPKLLIYAASTLQSGVPSRFSGSGSGTEFTLTISSLQPEDFATYYCQQLNSYPHTFGQGTKLEIK
binding result [1]: binds | binding result [2]: binds | binding result [3]: binds

B7: 3476 (antibody, V domains shown)
VH: QVQLQESGPGLVKPSETLSLTCAVSGGSISSYYWSWIRQPPGKGLEWIGYIYYSGRTNYNPSLKSRVTISVDTSKNQFSLKLSSVTAADTAVYYCAREMRRGYSGYDDWDLYAFDIWGQGTMVTVSS
VL: DIQLTQSPSFLSTSIGDRVTITCRASQGISSYLAWYQQKPGKAPNLLIYAASTLQSGVPSRFSGSGSGTEFTLTISSLQPEDFATYYCQQLNSYPHTFGQGTKLEIK
binding result [1]: binds | binding result [2]: binds | binding result [3]: binds

B8: 3513 (antibody, V domains shown)
VH: QVQLQESGPGLVKPSETLSLTCTVTGGSINNYFWSWIRQPPGKGLEWIGNIYYSGNTIYNPSLKSRVTLSIDTSKNQFSLRLTSVTAADTAVYYCAREMRRGYSGYDYWDLYAFDVWGQGTMVTVSS
VL: DIQLTQSPSFLSASVQDRVTITCRASQDISSYLAWYQQKPGKAPKLLIYAASTLQSGVPSRFSGSGSGTEFTLTISSLQPEDFATYYCQQLNSYPHTFGQGTKLEIK
binding result [1]: binds | binding result [2]: binds | binding result [3]: binds

B9: 3581 (antibody, V domains shown)
VH: QVQLQESGPGLVKPSETLSLTCTVSGGSISTYYWSWTRQPPGKGLEWIGNIYYSGSTIYNPSLKSRVTISVDTSKNQFSLKLTSVTAADTAVYYCAREMRRGYSGYDYWDLYAFDIWGQGTMVTVSS
VL: DIQLTPSPSFLSASVGDRVTITCRASQGISSYLAWYQQTPGKAPKLLIYAASTLQSGVPSRFSGSGSGTEFTLTISSLQPEDFATYYCQQLNSYPHTFGQGTKLEIK
binding result [1]: binds | binding result [2]: binds | binding result [3]: binds

B10: 3573 (antibody, V domains shown)
VH: QVLLQESGPGLVKPSETLSLTCAVSGGSISSYYWSWIRQPPGKGLEWIGYIYYSGRTNYNSSLKSRVTISVDTSKNQFSLKLSSVTAADTAVYYCAREMRRGYSGYDDWDLYAFDIWGQGTMVTVSS
VL: DIQLTQSPSFLSTSVGDRVTITCRASQGISSYLAWYQQKPGKAPKLLIYAASTLQSGVPSRFSGSGSGTDFTLTISSLQPEDFATYYCQQLNSYPHTFGQGTKLEIK
binding result [1]: binds | binding result [2]: binds | binding result [3]: binds

B11: AB-3571 (antibody, V domains shown)
VH: QVQLQESGPGLVKPSETLSLTCAVSGGSISSYHWNWIRQPPGKGLEWIGYIYYSGRTNYNPTLKSRVNISVDTSKNQFSLKLSSVTAADTAVYYCAREMRRGYSGYDYWDLYAFDIWGQGTMVTVSS
VL: DIQLTQSPSFLSTSVGDRVTITCRASQDISTYLAWYQQKPGKAPKLLIYAASTLQSGVPSRFSGSGSGTEFTLTISSLQPEDFVTYYCQQLNSYPHTFGQGTKLEIK
binding result [1]: binds | binding result [2]: binds | binding result [3]: binds

B12: 3577 (antibody, V domains shown)
VH: QVQLQESGPGLVKPSETLSLTCTVSGGSISSYHWNWIRQPPGKGLEWIGYIYYSGNTNYNPSLKSRVSISADTSKNQFSLKLSSVTAADTAVYYCAREMRRGYSGYDYWDLYAFDIWGQGTMVTVSS
VL: DIQLTQSPSFLSASVGDRVTITCRASQGISSYLAWYQQKPGKAPKLLIYTASTLQSGVPSRFSGSGSGTEFTLTISSLQPEDFATYYCQQLNSYPHTFGQGTKLEIK
binding result [1]: binds | binding result [2]: binds | binding result [3]: binds

B13: 3517 (antibody, V domains shown)
VH: QVQLQESGPGLVKPSETLSLTCTVSGGSISSYHWNWIRQPPGKGLEWIGYIYYSGSTNYNPSLKSRVSISVDTSKNQFSLKLSSVTAADTAVYYCAREMRRGYSGYDYWDLYAFDIWGQGTMVTVSS
VL: DIQLTQSPSFLSASVRDRVTITCRASQDISSYLAWYQQKPGKAPKLLIYAASTLQSGVPSRFSGSGSGTEFTLTISSLQPEDFATYYCQQLNNYPHTFGQGTKLEIK
binding result [1]: binds | binding result [2]: binds | binding result [3]: binds

B14: 3475 (antibody, V domains shown)
VH: QVQLQESGPGLVKPSETLSLTCTVSGDSISSYHWNWIRQPPGKGLEWIGYIYYSGSTNYNPSLKSRVTISVHTSKNQFSLRLSSVTAADTAVYYCAKEMRRGYSGYDYWDLYAFDIWGQGTMVTVSS
VL: DIQLTQSPSFLSASVGDRVTVTCRASQGISSYLAWYQQKPGKAPKLLIYAASTLQSGVPSRFSGSGSGTEFTLTISSLQPEDFATYYCQQLNSYPHTFGQGTKLEIK
binding result [1]: binds | binding result [2]: binds | binding result [3]: binds

B15: 3881 (antibody, V domains shown)
VH: QVQLQGSGPGLVKPSETLSLTCTVSGGSISSYYWTWIRQPPGKGLEWIGYIYYSGITTYNPSLKSRITISVDTSKNQFSLKLRSVTAADTAVYYCAREMRRGYSGYDYWDLYPFDIWGQGTMVTVSS
VL: DIQLTQSPSFLSASVGDRVTITCRASQGISSYLAWYQQKPGKAPKLLIYSASTLQSGVPSKFSGSGSGTEFTLTISSLQPEDFATYYCQQLNSYPHTFGQGTKLEIK
binding result [1]: binds | binding result [2]: binds | binding result [3]: binds

B16: 3521 (antibody, V domains shown)
VH: QVQLQESGPGLVKPSETLSLTCTVSGGSISSYHWSWIRQPPGKGLEWIGYIYYSGSTIYNPSLKSRVSISVDTSQNQFSLKLSSVTAADTAVYYCAREMPRGYSGYDYWDLYAFDIWGQGTMVTVSS
VL: DIQLTQSPSFLSASVRDRVTITCRASQGISSYLAWYQQKPGKAPKLLIYAASTLQSGVPSRFSGSGSGTEFTLTISSLQPEDFATYYCQQLNNYPHTFGQGTKLEIK
binding result [1]: binds | binding result [2]: binds | binding result [3]: binds

B17: AB-1987, expressed as human IgG1 (antibody, V domains shown)
VH: QVQLVESGGGVVQPGRSLRLSCAASGFTFSSYGMHWVRQAPGKGLEWAAVIWYDGSNKYYADSVKGRFTISRDNSKNTLYLQMNSLRAEDTAVYYCARESSGGFDYWGQGTLVTVSS
VL: NIQMTQSPSAMSASVGDRVTITCRARQGISNFLAWFQQKPGKVPKHLVYAASSLRSGVPSRFSGSGSGTEFTLTISSLQPEDFATYYCLQHNNYPYTFGQGTKLEIK
neutralization of live CoV2 virus, Vero E6 cells (blocks RBD-ACE2) [4]: 0.054 µg/mL

B18: AB-2126, expressed as human IgG1 (antibody, V domains shown)
VH: QVQLVESGGGVVQPGRSLRLSCAASGFTFSSYGIHWVRQAPGKGLEWVAVIWYDGSNKYYADSVKGRFTISRDNSKNTLYLQMNSLRAEDTAVYYCARETLDGMDVWGQGTTVTVSS
VL: NIQMTQSPSAMSASVGDRVTITCRARQGISNYLAWFQQKPGKVPKHLIYAASSLLSGVPSRFSGSGSGTEFTLTIRSLQPEDFATYYCLQHNSYPYTFGQGTKLEIK
neutralization of live CoV2 virus, Vero E6 cells (blocks RBD-ACE2) [4]: 0.106 µg/mL

From publication PMC8554075 (Immunity, 2021)
